# Assay results as given in patent US20120122830A1 (King Faisal Specialist Hospital & Research Centre, priority 2008, published 2012).
# Read-outs that look alike come from different tables or passages of the source.
# Columns and labels:
# B104 cells [1] = assay: Necrotic effect of fibrillary form of human Aβ1-42 peptide on B104 cells; assay type: cell-based, Rat
# Protocol: (§1) Rat B104 neuroblastoma is chosen as the cell culture model due to its neuronal phenotype when grown in serum free medium (Schubert et al. Nature 1974; 249: 224-27). B104 cells are routinely grown in flasks of 75 cm^2 with complete culture medium containing Dulbecco's Modified Eagle Medium (DMEM) supplemented with 2 mM L-glutamine, penicillin G (50 U/ml), streptomycin sulfate (50 μg/ml), 10% fetal calf serum, and 5% horse serum. They are sub-cultured every week and the culture medium is changed every three days. Cultures are maintained at 37° C. in a humidified incubator in 90% air and 10% CO2 atmosphere. For the experiments, the cells are plated at the required density, in serum complete medium for 24 H and then the medium is replaced with a serum free one containing or not the desired treatment.
# Aβ1-42 is obtained from Bachem and prepared in fibril form known to mediate neurotoxicity (Lorenzo et al. Proc Natl Acad Sci USA 1994; 91:12243-47). Aβ1-42 fibrils are produced by dissolving the peptide in double distilled water (ddH2O) to 10 µg/μl, followed by incubation under agitation (300-400 rpm) for one week at 37° C.
# Flow cytometry is utilized to look for the percentage of apoptosis or necrosis that reflects the neurotoxic effect of Aβ1-42 as well as the neuroprotective effect of neurosteroids by staining cells with annexin V that has affinity to phosphatidyl serine (PS) (Van Genderen et al. 2006). In normal viable cells, PS is located on the cytoplasmic side of the cell membrane. However, in apoptotic cells, PS is translocated from the inner to the outer leaflets of the plasma membrane where annexin V could bind to PS. Moreover, annexin V can pass through the compromised membrane of necrotic cells and bind to PS in the anterior of the cell (Van Genderen et al. Nat Protoc 2006; 1:363-67).
# Cells are seeded in 6 well plates at the required density and grown for 24H. They are then treated according to two procedures: either with specific steroids and then Aβ1-42 or with Aβ1-42 followed by steroids. A kinetic study is performed at 6, 12 or 24 H depending on the concentration of the peptide.
# For flow cytometry analysis, cells are washed with PBS and harvested by trypsinization. After centrifugation and resuspension in annexin binding buffer and incubation for 15 min with 5-25 μl of annexin V conjugate, cells are washed with annexin binding buffer and examined by flow cytometry. Data is examined by using appropriate software, and scattergrams are analyzed.
# [2] = rats and mice; Akwa et al. 2001; cited from earlier work
# B104 cells [3] = assay: Neuroprotection by PREGS against fibrillary human Aβ1-42 peptide toxicity on B104 cells; assay type: cell-based, Rat; set-up: protection against Aβ1-42 peptide-induced toxicity: dose or concentration left out as unconfirmed
# Protocol: as §1
# Aβ1-42 is obtained from Bachem and prepared in fibril form known to mediate neurotoxicity (Lorenzo et al. Proc Natl Acad Sci USA 1994; 91:12243-47). Aβ1-42 fibrils are produced by dissolving the peptide in double distilled water (ddH2O) to 10 µg/μl, followed by incubation under agitation (300-400 rpm) for one week at 37° C. […]
# For flow cytometry analysis, cells are washed with PBS and harvested by trypsinization. […] Data is examined by using appropriate software, and scattergrams are analyzed.
# B104 cells [4] = assay: Neurotrophic activity: neuronal outgrowth in B104 cells cultured at low density; assay type: cell-based, Rat; details: 5 μM PREGS during 7 days, compared to control cells
# Protocol: as §1
# For this purpose, […] acid (95:5), washed and incubated for 30 min in PBS containing 2% bovine serum albumin (BSA) to block non specific binding. Immunostaining of B104 cells is performed for 2 H at room temperature (RT) with appropriate dilutions of primary antibodies. Then, cells are rinsed and incubated with sheep anti-mouse IgG antibodies (Sigma) in PBS/BSA, for 2 H at RT. After being washed, the immunostained cells are examined under microscope (a Leica or Zeiss Axiovert 135M microequipped with an epifluorescence system or optical microscope Nikon Labophot 2).
molecule,measurement,setting,value
"Aβ1-42: fibrillary form of human β-amyloid peptide Aβ1-42, obtained from Bachem","necrosis, dose dependence",B104 cells [1],significant dose-dependent necrosis
same,necrotic effect,"B104 cells [1]; B104 cells, 10 μM human Aβ1-42 peptide, 6 h, compared to control cells",considerable necrotic effect
same,time after treatment at which necrotic effect was demonstrated,"B104 cells [1]; B104 cells, fAβ1-42",≤ 6 H
same,"necrosis, dose dependence","B104 cells [1]; B104 cells, increasing from 5 μM to 20 μM of fAβ1-42 peptide",significant dose-dependent necrosis
CC(=O)[C@@H]1CC[C@@H]2[C@H]3CC=C4C[C@H](OS(=O)(=O)O)CC[C@@]4(C)[C@@H]3CC[C@]21C [ent-PREGS],potency in stimulating memory relative to natural PREGS,[2],more potent
pregnenolone sulfate [PREGS],protection against fAβ1-42 peptide-induced toxicity,"B104 cells [3]; PREGS at 20 μM, 20 μM fAβ1-42 peptide, observed at 24H, maintained until 96H",able to protect
same,protection against Aβ1-42 peptide-induced toxicity,"B104 cells [3]; observed at 24 h, maintained until 96 h",able to protect
same,neuronal cell outgrowth,B104 cells [4],Striking neuronal cell outgrowth
